In the supplement of paper PMC9112550, “Optimization of the antimicrobial peptide Bac7 by deep mutational scanning” (BMC Biology, 2022):

Test system: Escherichia coli TOP10
Assay: shrunken log2 fold change of peptide-encoding DNA abundance (4.5 h post-induction vs induction); higher = less antimicrobial activity (less host growth inhibition)
Conditions: time post-induction: 4.5 h; library: site-saturation at positions 5, 18, 19, 20
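Further: peptides expressed intracellularly from a pBAD plasmid library in pooled LB shake-flask culture, induced with 0.3% L-arabinose, DNA abundance read by NGS, three biological replicates, DESeq2 with apeglm shrinkage.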

Sequence | shrunken log2 fold change
RRIRARPPRLPRPRPRPAAGPRP | 0.78
RRIRARPPRLPRPRPRPACEPRP | 0.879
RRIRARPPRLPRPRPRPADHPRP | 0.0196
RRIRARPPRLPRPRPRPAFRPRP | 0.355
RRIRARPPRLPRPRPRPAGTPRP | 0.308
RRIRARPPRLPRPRPRPAHSPRP | 0.469
RRIRARPPRLPRPRPRPAHTPRP | 0.544
RRIRARPPRLPRPRPRPAIMPRP | 0.161
RRIRARPPRLPRPRPRPAKLPRP | 0.196
RRIRARPPRLPRPRPRPALAPRP | 0.554
RRIRARPPRLPRPRPRPALKPRP | 0.825
RRIRARPPRLPRPRPRPALVPRP | 0.597
RRIRARPPRLPRPRPRPAMKPRP | 0.0417
RRIRARPPRLPRPRPRPAMRPRP | 0.825
RRIRARPPRLPRPRPRPAMTPRP | 0.356
RRIRARPPRLPRPRPRPARMPRP | 0.724
RRIRARPPRLPRPRPRPARVPRP | 0.813
RRIRARPPRLPRPRPRPASGPRP | 1.35
RRIRARPPRLPRPRPRPASPPRP | 0.499
RRIRARPPRLPRPRPRPATSPRP | 0.461
RRIRARPPRLPRPRPRPAVVPRP | 0.16
RRIRARPPRLPRPRPRPAWKPRP | 0.398
RRIRARPPRLPRPRPRPAYIPRP | -0.148
RRIRARPPRLPRPRPRPAYLPRP | 0.365
RRIRARPPRLPRPRPRPAYYPRP | -0.166
RRIRARPPRLPRPRPRPCCNPRP | 0.278
RRIRARPPRLPRPRPRPCFCPRP | 0.25

Sequence | shrunken log2 fold change
RRIRARPPRLPRPRPRPCFFPRP | 0.145
RRIRARPPRLPRPRPRPCFYPRP | -0.218
RRIRARPPRLPRPRPRPCIHPRP | -0.438
RRIRARPPRLPRPRPRPCIIPRP | -0.076
RRIRARPPRLPRPRPRPCKIPRP | -0.165
RRIRARPPRLPRPRPRPCLPPRP | 0.0185
RRIRARPPRLPRPRPRPCQHPRP | -0.274
RRIRARPPRLPRPRPRPCRHPRP | -0.355
RRIRARPPRLPRPRPRPCRNPRP | -0.38
RRIRARPPRLPRPRPRPCSHPRP | 0.0574
RRIRARPPRLPRPRPRPCSTPRP | -0.0691
RRIRARPPRLPRPRPRPCSYPRP | -0.0595
RRIRARPPRLPRPRPRPCTMPRP | -0.207
RRIRARPPRLPRPRPRPCVCPRP | 0.301
RRIRARPPRLPRPRPRPCVQPRP | 0.217
RRIRARPPRLPRPRPRPCVTPRP | 0.176
RRIRARPPRLPRPRPRPCWKPRP | -0.16
RRIRARPPRLPRPRPRPCWMPRP | -0.102
RRIRARPPRLPRPRPRPCWPPRP | 0.162
RRIRARPPRLPRPRPRPCYQPRP | -0.232
RRIRARPPRLPRPRPRPCYSPRP | -0.525
RRIRARPPRLPRPRPRPCYYPRP | -0.508
RRIRARPPRLPRPRPRPDAKPRP | 0.338
RRIRARPPRLPRPRPRPDASPRP | 1.94
RRIRARPPRLPRPRPRPDDRPRP | -0.149
RRIRARPPRLPRPRPRPDHFPRP | -0.148
RRIRARPPRLPRPRPRPDHHPRP | -0.201
